Literature values as cited in PMC9464622, “The collectin SP-A and its trimeric recombinant fragment protect alveolar epithelial cells from the cytotoxic and proinflammatory effects of human cathelicidin in vitro” (Frontiers in Immunology, 2022).

Test system: LL-37 and β-defensin 3
From the text: The host appears to protect its own cells from LL-37 cytotoxicity by several mechanisms. […] In addition, the C1q globular head receptor (gC1qR, also known as p33) protects ...

B1: p33: negatively charged protein expressed on the surface of various cell types (protein, UniProt Q07021 74-282, looked up)
Complement component 1 Q …: LHTDGDKAFVDFLSDEIKEERKIQKHKTLPKMSGGWELELNGTEAKLVRKVAGEKITVTFNINNSIPPTFDGEEEPSQGQKVEEQEPELTSTPNFVVEVIKNDDGKKALVLDCHYPEDEVGQEDEAESDIFSIREVSFQSTGESEWKDTNYTLNTDSLDWALYDHLMDFLADRGVDNTFADELVELSTALEHQEYITFLEDLKSFVKSQ
**Q.** With B1 as the molecule, how does the “binding of LL-37 and β-defensin 3” value read?
**A.** The value was “binds LL-37 and β-defensin 3 with high affinity”.
